Results: publication doi:10.1101/2023.06.02.543398 (bioRxiv, 2023)
Ends that are not written are not given here.

B1: MAP7 MT-binding domain (MTBD), residues 59-170 (domain or fragment)
chain: PVLRVDDRQRLARERREEREKQLAAREIVWLEREERARQHYEKHLEERKKRLEEQRQKEERRRAAVEEKRRQRLEEDKERHEAVVRRTMERSQKPKQKHNRWSWGGSLHGSP
B2: NHS-fluorescein-labelled α-tubulin carboxy-terminal tail peptide (peptide)
peptide: SVEGEGEEEGEEY
modifications: also: NHS-fluorescein label, position not given here

Experiments:
[1] = target: Taxol-stabilized microtubules from lyophilized tubulin (Cytoskeleton, Inc.) (UniProt P02550 1-451; P02554 1-445); test: ITC
[2] = target: B1; test: fluorescence polarisation

Taxol-stabilized microtubules from lyophilized tubulin (Cytoskeleton, Inc.), sequence (P02550 whole entry, chain 1 of 2): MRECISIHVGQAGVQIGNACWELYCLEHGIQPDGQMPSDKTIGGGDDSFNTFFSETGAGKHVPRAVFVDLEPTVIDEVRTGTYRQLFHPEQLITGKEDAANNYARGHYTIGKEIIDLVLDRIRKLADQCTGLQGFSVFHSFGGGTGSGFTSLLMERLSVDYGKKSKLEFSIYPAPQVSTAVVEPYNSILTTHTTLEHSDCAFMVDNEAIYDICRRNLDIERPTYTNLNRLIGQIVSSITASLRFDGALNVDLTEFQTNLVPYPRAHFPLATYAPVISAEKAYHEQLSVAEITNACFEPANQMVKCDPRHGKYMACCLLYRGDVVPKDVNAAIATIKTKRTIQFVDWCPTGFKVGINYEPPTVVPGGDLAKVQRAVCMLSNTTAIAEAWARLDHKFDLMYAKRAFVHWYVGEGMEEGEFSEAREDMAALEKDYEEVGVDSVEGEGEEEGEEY
Taxol-stabilized microtubules from lyophilized tubulin (Cytoskeleton, Inc.), sequence (P02554 whole entry, chain 2 of 2): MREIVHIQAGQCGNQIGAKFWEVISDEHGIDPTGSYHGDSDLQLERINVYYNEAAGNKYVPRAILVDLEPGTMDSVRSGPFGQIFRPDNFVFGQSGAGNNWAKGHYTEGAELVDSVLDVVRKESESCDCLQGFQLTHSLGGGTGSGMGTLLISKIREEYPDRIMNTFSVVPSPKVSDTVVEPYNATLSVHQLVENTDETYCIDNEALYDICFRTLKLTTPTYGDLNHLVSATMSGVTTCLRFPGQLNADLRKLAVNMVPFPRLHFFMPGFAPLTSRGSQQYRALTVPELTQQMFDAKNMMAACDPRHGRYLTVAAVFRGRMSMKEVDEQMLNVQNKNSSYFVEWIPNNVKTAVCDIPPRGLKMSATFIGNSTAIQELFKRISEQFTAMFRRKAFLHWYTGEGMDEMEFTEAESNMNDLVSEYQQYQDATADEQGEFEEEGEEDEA

Binder	Kd [1] [µM]	stoichiometry N [1]	Kd [2] [µM]
B1	0.94	0.51 ± 0.09 MAP7 MTBD to tubulin	
B2			91.3 ± 17.5
